Results as given in patent publication US20240218057A1 (ROCKEFELLER UNIVERSITY, published 2024).

B1: C951 (antibody, V domains shown)
VH: QVQLQESGPRLVKPSGTLSLTCAVSGGSISTTNWWSWVRQPPGKGLEWIGEIHHSGNTNYNPSLKSRVTISVDRSKNQFSLKLSSVTAADTAVYFCARDGGRPGDPFDIWGQGTMVTVSS
VL: QSALTQPASVSGSPGQSITISCTGTSSDVGGYNYVSWYQQHPGKAPNLMIYDVSDRPSGVSNRFSGSKSGNTASLTISGLQAEDEADYYCNSFTSNSTRVFGTGTKVTV
B2: C947 (antibody, V domains shown)
VH: QVQLQESGPGLVRPSGTLSLTCAVTGGSISSSDCWSWVRQPPGKGLEWIGEICHGRTSNYNPSLKSPVSISVDKSKNQFSLILSSVTAADKAVYYCARSSRFLPPLPDAFDLWGQGTMVTVSS
VL: QSVLTQPPSVSGAPGQRVTISCTGSSSNIGAGYDVHWYKQLPGTAPKLLIYGNTNRPSGVPGRFSGSKSGTSASLAITGLQAEDEADYFCQSYDTRLSVVFGGGTKLT
B3: C943 (antibody, V domains shown)
VH: QVQLVESGGGVVQPGRSLRLSCAASGFPFSSFGMHWVRQAPGRGLEWVALILYDGDNKYYADSVKGRFTISRDNSKNTLYLQMNSLRAEDTAVYYCAKDIGGGSSPPFFDYWGQGTLVTVSS
VL: SYELTQAPSVSLAPGKTARITCGENNIGSKSVHWYQQKPGQAPVLVIYYDSDRPSGIPERFSGSNSGNTATLTISRVEAGDEADYYCQVWDSSSDHVMFGGGTKLTVL
B4: C944 (antibody, V domains shown)
VH: QVQLVESGGGVVQPGRSLRLSCAASGFTFSSYGMHWVRQAPGKGLEWVAVISYDGSYKYYADSVKGRFTISRDNSKNTLYLQMNSLRAEDTAVYYCAKGSGSQLYYYYGMDVWGQGTTVTVSS
VL: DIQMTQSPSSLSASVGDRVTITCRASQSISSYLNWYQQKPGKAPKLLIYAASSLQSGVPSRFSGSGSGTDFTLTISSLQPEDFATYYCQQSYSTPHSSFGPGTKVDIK
B5: C1031 (antibody, V domains shown)
VH: QLQLQESGPGLVKPSETLSLTCTVSGGSINTSTYYWGWIRQPPGKGLEWIGNIYYSGITYYNPSLKSRVTISVDTSKNQFSLKLRSVTAADTAVYYCARQHRFGSGSSELLWGQGTLVTVSS
VL: QSALTQPPSASGSPGQSVTISCTGTSSDVGSYNYVSWYQQHPGKAPKLMIYEVTKRPSGVPDRFSGSKSGNTASLTVSGLQADDEADYYCSSYAGSSNLVFGGGTKLTV
B6: C948 (antibody, V domains shown)
VH: EVQLVESGGGLVQPGGSLRLSCAASGFTFSRYDMHWVRQATGKGLEWVSIIGTAGDTYYPGSVKGRFTISRDNAKNSLFLQMNSLRAGDTAVYYCARANYDSSGYHNWFDPWGQGTLVTVSS
VL: DIQMTQSPSSLSASIGDRVTITCRASQNINSYLNWYQQKPGKAPKLLIYAASSLQSGVPSRFSGSGSGTDFTLTINSLQPEDFATYYCQQSYSMPSWTFGQGTKVEI
B7: C1027 (antibody, V domains shown)
VH: EVQLVESGGGLVQPGGSLRLSCAASGFIVTTNYMSWVRQAPGKGLEWVSLIYPGGSTFYADSVEGRFTISRDNSKNTLYLQVNSLRVEDTAVYYCARDTFGRGDDHWGQGTLVTVSS
VL: DIQMTQSPSSLSASVGDRVTITCQASQDINIYLNWYQQRPGKAPKLLIYDASNLQTGVPSRFSGSGSGTDFTITISSLQPEDIATYYCQQYDNLPRSFGQGTKLEI
B8: C940 (antibody, V domains shown)
VH: QVQLQESGSGLVKPSQTLSLTCAVSGGSASSGGYSWSWIRQPPGKGLEWIGYIYHSGSTYYNPSLKSRVTISLDRTKKQFSLKLSSVTAADTAVYYCARFCLSGSHYLFAFDIWGPGTMVTVSS
VL: QSALTQPASVSGSPGQSITISCTATSSDVGGYNFVSWYQQYPGKVPKLLIYDVGNRPSGVSNRFSGSKSGNTASLTISGLQAEDEADYYCSSYTNSSTFFGGGTKLTVL
B9: C1032 (antibody, V domains shown)
VH: EVQLVESGGSLVKPGGSLRLSCVASGLTFNHAWMSWVRQAPGKGLEWVGRIKSKIDGGTTDYAAPVKGRFTISRDDSKSTQYLQMNSLKTEDTAVYYCTTDCFWRLGGTTCYEHDAFDVWGQGTMVTVS
VL: DIQMTQSPSSLSASVGDRVTITCRASQAIATFLNWYQQKPGKAPKLLIYAASSLQSGVPSRFSGSGSGTDFTLTISSLQPEDFATYYCQQSYNSLHFGGGTKVEIK
B10: C1026 (antibody, V domains shown)
VH: QVQLVESGGGVVQPGKSLRLSCAASGFIFSSYSMHWVRQAPGKGLEWVAVVSNDGSGKFYADSVRGRFTIFRDNSKNTLYLQVSSLRAEDTAVYYCARDALTSISVLFDCWGQGTLVTVSS
VL: DIQMTQSPSSLSASLGDRVTITCRASQSISNYLNWYQQKPGKAPKLLIYGASSLQSGVPSRFSGSGSGTDFTLTISNLQPEDFATYFCQQSYSTPSVTFGGGTKVEIK
B11: C1028 (antibody, V domains shown)
VH: QVQLVESGGGVVQPGRSLRLSCADSGFTFSSSGMHWVRQAPGKGLEWVGVISYDGGNKYYADSVKGRFTISRDNSKNTLYLQMNSLRAEDTAVYYCAKDTPGGDDIMTGWGLYGMDVWGQGTTVTVSS
VL: DIQMTQSPSSLSASVEDRVTITCRASQSISSYLNWYQQKPGKAPKLLIYAAISLQSGVPSRFSGSGSGTEFTLTISSLQPEDFATYYCQQSYTTPWAFGQGTKVEIK
B12: C1034 (antibody, V domains shown)
VH: QLQLQESGPGLVKPSETLSLTCTVSGGSVSSNNHYWGWIRQPPGKGLEWIGSISSSGSTHHNPSLRSRVTISVDTSKNHFSLKLNSVTATDTAVYYCARVDSSGWYTGDVFDVWGQGTMVTVSS
VL: DIQMTQSPSSLSASVGDRVTITCRASQTINNYLNWYQQKPGKPPKLLIYAAFSLHSGVPSRFSGSRSGTDFTLTISSLQPEDFATYYCQHSYSTMCSFGQGTKLEIK
B13: C1025 (antibody, V domains shown)
VH: EVQLVESGGGLVQPGRSLRLSCAASGFTFDDYAMHWVRQVPGKGLEWVSGVSWNGDSVGYADSMEGRFTISRDNAKNSLYLQMNSLRTEDTALYYCAKGVDYSSSSNFDFWGQGTLVTVSS
VL: DIQMTQSPSSVSASVGDRVTITCRASQGISSWLAWYQQKPGKAPKLLISLASSLQSGVPSRFSGSGSETDFTLIISSLQPEDFATYYCQQSSSFPLTFGGGTKVEIK
B14: C942 (antibody, V domains shown)
VH: QVQLVESGGGVVQPGRSLRLSCAASGFTFSSYVMHWVRQAPGKGLEWVAIISSDGNTKYYADSVKGRFTISRDNSKNTLYLQMNSVRTDDTAVYYCARDGTTMTPTDLLTDWGQGTLVTVSS
VL: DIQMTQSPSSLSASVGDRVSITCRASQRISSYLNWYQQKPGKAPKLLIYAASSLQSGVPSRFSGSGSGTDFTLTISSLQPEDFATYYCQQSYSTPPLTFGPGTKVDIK
B15: C1029 (antibody, V domains shown)
VH: QVQLVESGGGVVQPGRSLRLSCAASGFTFSSFGMHWVRQAPGKGLEWVAVISYDGSYKDYGDSVKGRFTISRDNSKNTLYLQMNSLRAEDTAVYYCARDSNVDTVMVTWFDYWGRGTLVTVSS
VL: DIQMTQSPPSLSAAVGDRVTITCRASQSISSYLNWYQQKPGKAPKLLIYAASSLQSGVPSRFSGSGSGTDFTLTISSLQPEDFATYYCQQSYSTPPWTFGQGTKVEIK
B16: C1033 (antibody, V domains shown)
VH: QVQLVQSGAEVKKPGSSVKVSCKASGGTFSRNVISWVRQAPGQGLEWMGGIIPMFGTANYAQKFQGRVTISADESTSTAYMELSSLRSEDTAVYYCAREDFILESAPIRENSYYYYGMDVWGQGTTVTVSS
VL: EIVLTQSPGTLSLSPGERATLSCRASQSVSSNYLAWYQQKPGQAPRLLIYDASSRATGIPDRFSGSGSGTDFTLTIRRLEPEDFAVYYCQQYGGSPRTFGQGTKVEIK
B17: C949 (antibody, V domains shown)
VH: QVQLQESGPGLVKPLQTLSLTCTVSGGSISNGDYYWSWIRQSPGKGLEWIGNIFYSGATYFNPSLKSRVTLSVDTSKNQFSLKLSSVTAADTAVYYCARVVRVLPAASVDCWGQGTLVTVSS
VL: QSALTQPRSVSGSPGQSVPISCTGTSSDVGGYDYVSWYQQHPGKAPKLIIYDVSERPSGVPDRFSGSKSGNTASLTISGLQAEDEATYYCCSYAGTSVMFGGGTKLTVL
B18: C941 (antibody, V domains shown)
VH: QVQLVQSGAEVKKPGSSVKVSCKASGGTSRSYPISWVRQAPGQGLEWMGRIIPIVGTANYAQRFQGRVTITADESTGTAYMELSSLRSEDTAVYYCARNRGYSDYGSVYYFDYWGQGTLVTVSS
VL: QSVLTQPPSVSGAPGQRVTISCTGSSSNIGAGYDVHWYQQLPGAAPKLLIYRNINRPSGVPDRFSGSKSGTSASLAITGLQADDEADYYCQSYDSSLSGSVFGGGTKLTV
B19: C945 (antibody, V domains shown)
VH: QVQLVQSGAEVKKPGASVRISCKASGYTFTNYYMHWVRQAPGQGLEWMGIINPSGGSTTYAPKFQARVTMTRDTSTSTVYMELSSLRSDDTAVYYCARDYVLVPARSGMDVWGQGTTVTVS
VL: EIVLTQSPATLSLSPGERATLSCRASQSVSSYLAWYQQKPGQAPRLLIYDASNRATGIPARFSGSGSGTDFTLTISSLEPEDFAIYYCQQRSNWPYTFGQGTKLEIK
B20: C1041 (antibody, V domains shown)
VH: QVQLVQSGAEVKKPGASVKVSCKASGYTFSDHYIYWVRQAPGQGLEWMGIINPSAGSTSYAQKFQGRVTMTRDTSTSTVYMELSSLRSEDTAVYYCARDIVFVPATMAMDVWGLGTTVTVSS
VL: EIVLTQSPATLSLSPGERATLSCRASQSVSRYLAWYQQKPGQAPRLLIYDASNRATGIPARFSGSGSGTDFTLTISSLEPEDFAVYYCQQRSNWLFTFGPGTKVDIK
B21: C946 (antibody, V domains shown)
VH: QVQLVQSGAEVKKPGASVKVSCKASGYTFTNYYIHWVRQAPGQGLEWMGIINPDGDSTSYVQKFQGRVTMTRDTSTSTVYMELSSLRSEDTAVYYCARDLVFVPATSAMDVWGKGTTVTVSS
VL: EIVLTQSPATLSLSPGERATLSCRASQSVSSYLAWYQQKPGQAPRLLIYDASNRATGIPARFSGSGSGTDFTLTISSLEPEDFAVYYCQQRSNWLFTFGPGTKVDIK
B22: C1042 (antibody, V domains shown)
VH: QVQLVQSGAEVKKPGASVKVSCKASGYTFSDHYIYWVRQAPGQGLEWMGIINPSGGSTSYAQKFQGRVTMTRDTSTSTVYMELSSLKSEDTAVYYCSRDIVFVPATMAMDVWGQGTTVTVSS
VL: EIVLTQSPATLSLSPGERATLSCRASQSVSRYLAWYQQKPGQAPRLLIYDASNRATGIPARFSGSGSGTDFTLTISSLEPEDFAVYYCQQRSNWLFTFGPGTKVDIK
B23: C1030 (antibody, V domains shown)
VH: EVQLVESGGGLVQPGGSLRLSCEASGVIVSSNYMNWVRQAPGKGPEWVSVLYAGGSTFYADSVKGRFTISRDDSKNTLFLQMNNLRAEDTAVYFCARDLIAFGMDVWGQGTTVTVSS
VL: DIQLTQSPSFLSASVGDRVTITCRASQGINSDLAWYQQKPGKAPKLLIYGASTLQSGVPSRFSGSGSGTEFSLTVSSLQPEDFATYYCQQLNSYRRFGGGTKVEIK

biological target: T1, SARS-COV-2 RBD (SARS-COV-2, UniProt P0DTC2 319-539); assay: ELISA, RBD coated on plate
T1 construct: also called WT RBD

Q: With B1 as the binder, how does the EC50 read?
A: Its EC50 is 0.81 ng/mL.

Q: B2 was tested. Which EC50 did it give?
A: The EC50 was 2.08 ng/mL.

Q: Which EC50 does the source give for B3 here?
A: Its EC50 is 2.59 ng/mL.

Q: With B4 as the binder, how does the EC50 read?
A: Its EC50 is 1.71 ng/mL.

Q: Which EC50 does the source give for B5 here?
A: Its EC50 is 7.23 ng/mL.

Q: For B6, which EC50 is on record?
A: Its EC50 is 3.26 ng/mL.

Q: With B7 as the binder, how does the EC50 read?
A: Its EC50 is 2.42 ng/mL.

Q: Which EC50 does the source give for B8 here?
A: The EC50 was 1.8 ng/mL.

Q: B9 was tested. Which EC50 did it give?
A: The EC50 was 2.89 ng/mL.

Q: With B10 as the binder, how does the EC50 read?
A: Its EC50 is 2.5 ng/mL.

Q: How did the EC50 turn out when B11 was run?
A: The EC50 was 3.58 ng/mL.

Q: B12 was tested. Which EC50 did it give?
A: Its EC50 is 2.77 ng/mL.

Q: With B13 as the binder, how does the EC50 read?
A: Its EC50 is 2.51 ng/mL.

Q: B14 was tested. Which EC50 did it give?
A: Its EC50 is 1.35 ng/mL.

Q: Which EC50 does the source give for B15 here?
A: The EC50 was 2.86 ng/mL.

Q: For B16, which EC50 is on record?
A: Its EC50 is 3.63 ng/mL.

Q: B17 was tested. Which EC50 did it give?
A: Its EC50 is 2.33 ng/mL.

Q: Which EC50 does the source give for B18 here?
A: Its EC50 is 0.88 ng/mL.

Q: B19 was tested. Which EC50 did it give?
A: The EC50 was 3.13 ng/mL.

Q: B20 was tested. Which EC50 did it give?
A: The EC50 was 3.65 ng/mL.

Q: Which EC50 does the source give for B21 here?
A: The EC50 was 3.82 ng/mL.

Q: Which EC50 does the source give for B22 here?
A: Its EC50 is 4.55 ng/mL.

Q: For B23, which EC50 is on record?
A: The EC50 was 2.78 ng/mL.
